From patent US11542479B2, “Alcohol dehydrogenase mutant and use thereof” (priority 2019, dated 2023) come the findings set out here.

Common to all, as to format: biochemical
Data set [1] has as its target alcohol dehydrogenase (KpADH, SEQ ID NO: 1) mutant S5, Q136N/F161V/S196G/E214G/S237C (Vanderwaltozyma polyspora, UniProt A7TM80, E214G/F161V/Q136N/S196G/S237C). The data set is described as follows: Kinetic parameters in asymmetric reduction of (4-chlorophenyl)-(pyridin-2-yl)-methanone, mutant S5. Conditions: mutant S5 vs wild type, to (S)-alcohol. The method, then: (§1) The detection method of enzyme activity of the alcohol dehydrogenase is as follows:
(§2) A sodium phosphate buffer (PBS, 100 mM, pH 7.0) containing 1 mM NADPH and 1.0 mM substrate prochiral (4-chlorophenyl)-(pyridin-2-yl)-methanone is stood at 30° C. for 2 min, and then 10 μL of a pure enzyme solution is added to the sodium phosphate buffer, and reacted at 30° C. During the reaction, the change in absorbance of the reaction solution at 340 nm is measured on a microplate reader, and used to calculate the enzyme activity.
(§3) The initial reduction activity of wild-type alcohol dehydrogenase and alcohol dehydrogenase mutants M63, M64 and S5 obtained in Example 1 were respectively determined with 0.1-5 mM prochiral diaryl ketone (4-chlorophenyl)-(pyridin-2-yl)-methanone as a substrate. The data was fitted by the nonlinear regression method in Graph Pad Prism 7.0 software, to obtain the Km and Vmax in Michaelis-Menten equation. Then kcat and kcat/Km were calculated.
(§4) kcat is calculated by the formula kcat=Vmax·M/60, where M is the molecular weight of the enzyme, in kDa.

Data set [2] concerns the target alcohol dehydrogenase (KpADH, SEQ ID NO: 1) mutant M63, K36I/T132D/N159D/K210E/T248A/Q272L (Vanderwaltozyma polyspora, UniProt A7TM80, K210E/K36I/N159D/Q272L/T132D/T248A). The data set is described as follows: Kinetic parameters in asymmetric reduction of (4-chlorophenyl)-(pyridin-2-yl)-methanone, mutant M63. Conditions: mutant M63 vs wild-type alcohol dehydrogenase. Here is the method: as §1, §2, §3, §4

The target of data set [3] is alcohol dehydrogenase (KpADH, SEQ ID NO: 1) mutant M64, K36I/T132D/N159D/K210E/T248A/Q272L/Q136N/F161V/S196G/E214G/S237C (Vanderwaltozyma polyspora, UniProt A7TM80, E214G/F161V/K210E/K36I/N159D/Q136N/Q272L/S196G/S237C/T132D/T248A). The data set can be described thus: Kinetic parameters in asymmetric reduction of (4-chlorophenyl)-(pyridin-2-yl)-methanone, mutant M64. Here is the method: as §1, §2, §3, §4

Data set [4] concerns O=C(c1ccc(Cl)cc1)c1ccccn1. The data set is described as follows: Kinetic parameters in asymmetric reduction of (4-chlorophenyl)-(pyridin-2-yl)-methanone, mutant M63. The note with it: other: mutant M63; 0.1-5 mM substrate; pH 7.0; 30.0 °C. Here is the method: as §1, §2, §3, §4
The test system of data set [5] is O=C(c1ccc(Cl)cc1)c1ccccn1. The data set is described as follows: Kinetic parameters in asymmetric reduction of (4-chlorophenyl)-(pyridin-2-yl)-methanone, mutant M64. Conditions: other: mutant M64; 0.1-5 mM substrate; pH 7.0; 30.0 °C. The method, then: as §1, §2, §3, §4
Data set [6] has as its system O=C(c1ccc(Cl)cc1)c1ccccn1. The data set can be described thus: Kinetic parameters in asymmetric reduction of (4-chlorophenyl)-(pyridin-2-yl)-methanone, mutant S5. The note with it: other: mutant S5; 0.1-5 mM substrate; pH 7.0; 30.0 °C. The method, then:
as §1, §2, §3, §4

Data set [7] has as its system O=C(c1ccc(Cl)cc1)c1ccccn1. The data set is described as follows: Kinetic parameters in asymmetric reduction of (4-chlorophenyl)-(pyridin-2-yl)-methanone, wild type. The note with it: other: wild type; 0.1-5 mM substrate; pH 7.0; 30.0 °C. Here is the method: as §1, §2, §3, §4

In the case of `O=C(c1ccc(Cl)cc1)c1ccccn1` [(4-chlorophenyl)-(pyridin-2-yl)-methanone], the “catalytic efficiency compared with wild type” value is listed as “decreased compared with the wild type” in data set [1] and “close to that of the wild type” in data set [3] (mutant M64 vs wild type, to (S)-alcohol). In data set [2], the “catalytic efficiency relative to wild type” value worked out at 1.3 times. Further, the “catalytic efficiency relative to mutant S5” value in data set [3] (mutant M64 vs mutant S5) is 1.35 times.

The Km is the substrate concentration at which the rate is half of its maximum. A word on the Vmax: it is the top rate of the reaction or transport when substrate is in excess. As a reminder, the kcat is the maximal rate divided by the concentration of active sites. A word on the kcat/Km: it is the turnover number divided by the Michaelis constant. As for “alcohol dehydrogenase (KpADH, SEQ ID NO: 1) mutant M63, K36I/T132D/N159D/K210E/T248A/Q272L (Vanderwaltozyma polyspora DSM 70294; K210E/K36I/N159D/Q272L/T132D/T248A)”, in data set [4], the Km was found to be 830 ± 200 µM, the Vmax was found to be 32.8 µmol/min/mg, the kcat worked out at 22.8 ± 2.14 s⁻¹ and the kcat/Km was 27500 M⁻¹ s⁻¹.

As for “alcohol dehydrogenase (KpADH, SEQ ID NO: 1) mutant M64, K36I/T132D/N159D/K210E/T248A/Q272L/Q136N/F161V/S196G/E214G/S237C (Vanderwaltozyma polyspora DSM 70294; E214G/F161V/K210E/K36I/N159D/Q136N/Q272L/S196G/S237C/T132D/T248A)”, in data set [5], the Km amounted to 860 ± 140 µM, the Vmax was 25.1 µmol/min/mg, the kcat worked out at 17.4 ± 1.1 s⁻¹ and the kcat/Km was found to be 20300 M⁻¹ s⁻¹.

Regarding “alcohol dehydrogenase (KpADH, SEQ ID NO: 1) mutant S5, Q136N/F161V/S196G/E214G/S237C (Vanderwaltozyma polyspora DSM 70294; E214G/F161V/Q136N/S196G/S237C)”, in data set [6], the Michaelis constant (Km) turned out to be 1090 ± 100 µM, the maximal velocity (Vmax) worked out at 24.4 µmol/min/mg, the kcat was determined as 16.1 ± 1.7 s⁻¹ and the specificity constant (kcat/Km) worked out at 14800 M⁻¹ s⁻¹.

Consider “wild-type alcohol dehydrogenase (KpADH), SEQ ID NO: 1 (Vanderwaltozyma polyspora DSM 70294)”, for which, in data set [7], the Michaelis-Menten constant (Km) turned out to be 950 ± 100 µM, the Vmax turned out to be 31.8 µmol/min/mg, the kcat stood at 20.1 ± 1 s⁻¹ and the kcat/Km amounted to 21200 M⁻¹ s⁻¹.
